Reference: patent publication US5534260A, “Percutaneous drug delivery system” (priority 1994, dated 1996)
“Also recorded” adds a separate entry of the source.

How the values were obtained:
[1] = Enhancement of acetylcholine chloride penetration through hairless mouse skin at pH 7.4 (Example III); format: in vitro ADME
Description: A percutaneous permeation enhancer having the following formula was prepared: […]
The effect of the percutaneous enhancer, as prepared in Example II above, was measured on the penetration of the quaternary compound acetylcholine chloride through hairless mouse skin at pH 7.4. […] The data below indicates a potentiating or synergistic effect in combining the agents for use as an enhancer.
Enhancement effect of 0.0465 mg/ml Sigma papain alone and in
combination with 2% Azone™ and 15% propylene glycol on the
penetration of acetylcholine chloride through hairless mouse

[2] = Fourier Transform Infrared spectroscopy of stratum corneum; parameters: species or system mouse; settings: for Absorbance in protein areas, peak position: Table I; for FTIR peak, Amide III / FTIR peak, Shoulder Beta sheet / FTIR peak, Alpha helix peak: Table IV; for FTIR peak, Amide III: untreated 1244; for FTIR peak, Shoulder Beta sheet: untreated 1267; for FTIR peak, Alpha helix peak: untreated 1295; for Symmetric CH peak position / Asymmetric CH peak position: Table V; for Symmetric CH peak position: normal SC 2848.3; for Asymmetric CH peak position: normal SC 2916.5; for Length of 70% line, symmetric line / Length of 70% line, asymmetric line: Table VI; for Length of 70% line, symmetric line: normal SC 8.6; for Length of 70% line, asymmetric line: normal SC 17.5
Description: A. Comparisons of normal stratum corneum (from mouse skin) to stratum corneum treated with a 0.09% concentration of papain for 24 hours was performed using Fourier Transform Infrared spectroscopy (FTIR). […] It is postulated that a shift from a random form of protein to the more organized beta sheet structure occurs. The alpha-helix structures of skin protein could be fractionated, uncoiled, or both.
A comparison of symmetric and asymmetric CH stretch bands was then made. These two bands represent lipid structure and would show any changes in the stratum corneum lipids caused by the papain.
B. Azone™ was tested as a permeation enhancer with and without the presence of papain.

[3] = Skin damage / irritation by papain pretreatment; settings: in words
[4] = Effect of non-enzyme components in admixture with papain on penetration of 14C-TEAB (Example IV)
[5] = acetylcholine chloride, pH 7.4, pretreated skin
[6] = 14C-TEAB through pretreated skin (n = 1 for components alone, n = 2 combinations, n = 3 papain 0.0465 mg/ml 24 hours)

B1: papain: proteolytic enzyme; preferred enzyme, readily available from Sigma Chemical Company (protein, UniProt P00784 134-345, looked up)
Papain: IPEYVDWRQKGAVTPVKNQGSCGSCWAFSAVVTIEGIIKIRTGNLNEYSEQELLDCDRRSYGCNGGYPWSALQLVAQYGIHYRNTYPYEGVQRYCRSREKGPYAAKTDGVRQVQPYNEGALLYSIANQPVSVVLEAAGKDFQLYRGGIFVGPCGNKVDHAVAAVGYGPNYILIKNSWGTGWGENGYIRIKRGTGNSYGVCGLYTSSFYPVKN
E (enhancement effect) ([1]; acetylcholine chloride, pH 7.4): 88.4
J (flux) [1, 5]: 5.67 × 10^-4 mg/cm^2 /sec
P (permeability) [1, 5]: 2.83 ×10⁻⁶ cm/s
increase in penetration of acetylcholine chloride ([1]; pH 7.4, pretreatment): eighty-eight
recovery after removal of papain ([2]; 24 hours): partial recovery
recovery after removal of papain ([2]; 48 hours): nearly complete recovery
Absorbance in protein areas, peak position ([2]; untreated SC 1244): 1236.6 cm⁻¹
Absorbance in protein areas, peak position ([2]; untreated SC 1267): 1263.7 cm⁻¹
Absorbance in protein areas, peak position ([2]; untreated SC 1295): 1288.4 cm⁻¹
Absorbance in protein areas, peak position ([2]; untreated SC 1400.5): 1403.8 cm⁻¹
Absorbance in protein areas, peak position ([2]; untreated SC 1456): 1464.7 cm⁻¹
Absorbance in lipid areas, symmetric CH peak position ([2]; Table II, untreated 2848.3): 2850 cm⁻¹
Absorbance in lipid areas, asymmetric CH peak position ([2]; Table II, untreated 2916.5): 2920 cm⁻¹
Length of the 70% line, symmetric CH ([2]; Table III, untreated 8.6): 9.1 cm⁻¹
Length of the 70% line, asymmetric CH ([2]; Table III, untreated 17.5): 17.5 cm⁻¹
FTIR peak, Amide III ([2]; 24 hr recovery after papain): 1242.4 cm⁻¹
FTIR peak, Shoulder Beta sheet ([2]; 24 hr recovery after papain): 1271.8 cm⁻¹
FTIR peak, Alpha helix peak ([2]; 24 hr recovery after papain): 1301.7 cm⁻¹
FTIR peak, Amide III ([2]; 48 hr recovery after papain): 1243.2 cm⁻¹
FTIR peak, Shoulder Beta sheet ([2]; 48 hr recovery after papain): 1268.4 cm⁻¹
FTIR peak, Alpha helix peak ([2]; 48 hr recovery after papain): 1296.5 cm⁻¹
FTIR peak, Amide III ([2]; papain treated): 1236 cm⁻¹
FTIR peak, Shoulder Beta sheet ([2]; papain treated): 1262 cm⁻¹
FTIR peak, Alpha helix peak ([2]; papain treated): 1288 cm⁻¹
Symmetric CH peak position ([2]; 48 hr recovery SC): 2849.3 cm⁻¹
Asymmetric CH peak position ([2]; 48 hr recovery SC): 2916.5 cm⁻¹
Symmetric CH peak position ([2]; papain treated SC): 2848.5 cm⁻¹
Asymmetric CH peak position ([2]; papain treated SC): 2916.3 cm⁻¹
Length of 70% line, symmetric line ([2]; 48 hr recovery SC): 10.5 cm⁻¹
Length of 70% line, asymmetric line ([2]; 48 hr recovery SC): 19.3 cm⁻¹
Length of 70% line, symmetric line ([2]; papain treated SC): 9.1 cm⁻¹
Length of 70% line, asymmetric line ([2]; papain treated SC): 17.5 cm⁻¹
change in lipid structure / CH stretch bands of stratum corneum ([2]; in words): no change in lipid structure
change in protein FTIR areas of stratum corneum ([2]; in words): significant changes occurring in the amide III, beta sheet, and alpha-helix formations of the stratum corneum cells
drug penetration (pH 7.4): greater drug penetration
increase in absorption of TEAB (skin pretreated with papain): 3,346%
skin damage / irritation [3]: increased damage to the skin and can cause bleeding; also recorded: damage the skin, possibly leading to bleeding
J (flux) [4, 6]: (1.33 ± 0.48) × 10^-4 mg cm^-2 s^-1
P (permeability) [4, 6]: (1.63 ± 0.59) × 10^-7 cm s^-1
E (enhancement effect) ([4]; 14C-TEAB, n = 1 components alone, n = 2 combinations, n = 3 papain): 32.93
